Experimental data taken from the supplement of paper PMC9112550, “Optimization of the antimicrobial peptide Bac7 by deep mutational scanning” (BMC Biology, 2022).

tested on: Escherichia coli TOP10; test: shrunken log2 fold change of peptide-encoding DNA abundance (4.5 h post-induction vs induction); higher = less antimicrobial activity (less host growth inhibition); settings: time post-induction: 4.5 h; library: site-saturation at positions 5, 18, 19, 20
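Note: peptides expressed intracellularly from a pBAD plasmid library in pooled LB shake-flask culture, induced with 0.3% L-arabinose, DNA abundance read by NGS, three biological replicates, DESeq2 with apeglm shrinkage.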

In order of rising “shrunken log2 fold change” value:
1. RRIRCRPPRLPRPRPRPHMMPRP  -1.12
2. RRIRCRPPRLPRPRPRPHNFPRP  -1.01
3. RRIRCRPPRLPRPRPRPFKNPRP  -0.967
4. RRIRCRPPRLPRPRPRPDYHPRP  -0.903
5. RRIRCRPPRLPRPRPRPHNDPRP  -0.889
6. RRIRCRPPRLPRPRPRPCTQPRP  -0.887
7. RRIRCRPPRLPRPRPRPGYMPRP  -0.836
8. RRIRCRPPRLPRPRPRPCYHPRP  -0.79
9. RRIRCRPPRLPRPRPRPFCYPRP  -0.733
10. RRIRCRPPRLPRPRPRPDNHPRP  -0.719
11. RRIRCRPPRLPRPRPRPFIKPRP  -0.715
12. RRIRCRPPRLPRPRPRPHSTPRP  -0.698
13. RRIRCRPPRLPRPRPRPDSKPRP  -0.657
14. RRIRCRPPRLPRPRPRPEHYPRP  -0.625
15. RRIRCRPPRLPRPRPRPDNLPRP  -0.595
16. RRIRCRPPRLPRPRPRPFYFPRP  -0.593
17. RRIRCRPPRLPRPRPRPHMPPRP  -0.585
18. RRIRCRPPRLPRPRPRPFYIPRP  -0.58
19. RRIRCRPPRLPRPRPRPHHDPRP  -0.58
20. RRIRCRPPRLPRPRPRPDYNPRP  -0.571
21. RRIRCRPPRLPRPRPRPFCIPRP  -0.571
22. RRIRCRPPRLPRPRPRPHFIPRP  -0.528
23. RRIRCRPPRLPRPRPRPCVPPRP  -0.49
24. RRIRCRPPRLPRPRPRPFLEPRP  -0.472
25. RRIRCRPPRLPRPRPRPHCVPRP  -0.439
26. RRIRCRPPRLPRPRPRPGKHPRP  -0.423
27. RRIRCRPPRLPRPRPRPHQRPRP  -0.422
28. RRIRCRPPRLPRPRPRPDRNPRP  -0.397
29. RRIRCRPPRLPRPRPRPGMMPRP  -0.389
30. RRIRCRPPRLPRPRPRPFGFPRP  -0.388
31. RRIRCRPPRLPRPRPRPCYSPRP  -0.379
32. RRIRCRPPRLPRPRPRPHFKPRP  -0.368
33. RRIRCRPPRLPRPRPRPHWQPRP  -0.365
34. RRIRCRPPRLPRPRPRPICYPRP  -0.358
35. RRIRCRPPRLPRPRPRPDIKPRP  -0.336
36. RRIRCRPPRLPRPRPRPHDAPRP  -0.336
37. RRIRCRPPRLPRPRPRPIFHPRP  -0.333
38. RRIRCRPPRLPRPRPRPGGIPRP  -0.329
39. RRIRCRPPRLPRPRPRPIINPRP  -0.325
40. RRIRCRPPRLPRPRPRPENFPRP  -0.32
41. RRIRCRPPRLPRPRPRPIGIPRP  -0.303
42. RRIRCRPPRLPRPRPRPGVPPRP  -0.3
43. RRIRCRPPRLPRPRPRPCWDPRP  -0.294
44. RRIRCRPPRLPRPRPRPCREPRP  -0.291
45. RRIRCRPPRLPRPRPRPDVNPRP  -0.281
46. RRIRCRPPRLPRPRPRPIDLPRP  -0.271
47. RRIRCRPPRLPRPRPRPHHRPRP  -0.266
48. RRIRCRPPRLPRPRPRPFLPPRP  -0.265
49. RRIRCRPPRLPRPRPRPDIFPRP  -0.262
50. RRIRCRPPRLPRPRPRPHAWPRP  -0.245
51. RRIRCRPPRLPRPRPRPFWLPRP  -0.227
52. RRIRCRPPRLPRPRPRPFCPPRP  -0.225
53. RRIRCRPPRLPRPRPRPIHSPRP  -0.221
54. RRIRCRPPRLPRPRPRPCWCPRP  -0.203
55. RRIRCRPPRLPRPRPRPIDSPRP  -0.197
56. RRIRCRPPRLPRPRPRPHLPPRP  -0.195
57. RRIRCRPPRLPRPRPRPHNVPRP  -0.194
58. RRIRCRPPRLPRPRPRPICEPRP  -0.178
59. RRIRCRPPRLPRPRPRPIDMPRP  -0.175
60. RRIRCRPPRLPRPRPRPHRRPRP  -0.167
61. RRIRCRPPRLPRPRPRPDTKPRP  -0.158
62. RRIRCRPPRLPRPRPRPFVMPRP  -0.153
63. RRIRCRPPRLPRPRPRPFRGPRP  -0.151
64. RRIRCRPPRLPRPRPRPDWDPRP  -0.149
65. RRIRCRPPRLPRPRPRPHMVPRP  -0.149
66. RRIRCRPPRLPRPRPRPCSIPRP  -0.143
67. RRIRCRPPRLPRPRPRPGTCPRP  -0.143
68. RRIRCRPPRLPRPRPRPHSCPRP  -0.132
69. RRIRCRPPRLPRPRPRPHWKPRP  -0.126
70. RRIRCRPPRLPRPRPRPGQWPRP  -0.125
71. RRIRCRPPRLPRPRPRPEKRPRP  -0.123
72. RRIRCRPPRLPRPRPRPHFPPRP  -0.0893
73. RRIRCRPPRLPRPRPRPFGSPRP  -0.078
74. RRIRCRPPRLPRPRPRPHEMPRP  -0.0763
75. RRIRCRPPRLPRPRPRPHPFPRP  -0.0728
76. RRIRCRPPRLPRPRPRPEKTPRP  -0.0706
77. RRIRCRPPRLPRPRPRPEEYPRP  -0.065
78. RRIRCRPPRLPRPRPRPFERPRP  -0.0613
79. RRIRCRPPRLPRPRPRPGKMPRP  -0.055
80. RRIRCRPPRLPRPRPRPFRQPRP  -0.0498
81. RRIRCRPPRLPRPRPRPHGIPRP  -0.0487
82. RRIRCRPPRLPRPRPRPGPFPRP  -0.0444
83. RRIRCRPPRLPRPRPRPDELPRP  -0.044
84. RRIRCRPPRLPRPRPRPDPCPRP  -0.039
85. RRIRCRPPRLPRPRPRPGAIPRP  -0.0334
86. RRIRCRPPRLPRPRPRPFGMPRP  -0.033
87. RRIRCRPPRLPRPRPRPFPLPRP  -0.0156
88. RRIRCRPPRLPRPRPRPCVWPRP  -0.013
89. RRIRCRPPRLPRPRPRPDTRPRP  -0.0118
90. RRIRCRPPRLPRPRPRPFPGPRP  -0.0106
91. RRIRCRPPRLPRPRPRPEEDPRP  -0.00229
92. RRIRCRPPRLPRPRPRPDANPRP  -0.00199
93. RRIRCRPPRLPRPRPRPGTQPRP  0.00157
94. RRIRCRPPRLPRPRPRPGKAPRP  0.00811
95. RRIRCRPPRLPRPRPRPGTWPRP  0.011
96. RRIRCRPPRLPRPRPRPGSSPRP  0.0141
97. RRIRCRPPRLPRPRPRPEMCPRP  0.0156
98. RRIRCRPPRLPRPRPRPGAHPRP  0.0157
99. RRIRCRPPRLPRPRPRPEIKPRP  0.0171
100. RRIRCRPPRLPRPRPRPDMRPRP  0.018
101. RRIRCRPPRLPRPRPRPGLLPRP  0.0187
102. RRIRCRPPRLPRPRPRPGEYPRP  0.0239
103. RRIRCRPPRLPRPRPRPDTFPRP  0.0257
104. RRIRCRPPRLPRPRPRPETQPRP  0.0409
105. RRIRCRPPRLPRPRPRPHLEPRP  0.0414
106. RRIRCRPPRLPRPRPRPDKPPRP  0.0422
107. RRIRCRPPRLPRPRPRPDRTPRP  0.0438
108. RRIRCRPPRLPRPRPRPETHPRP  0.0444
109. RRIRCRPPRLPRPRPRPDDDPRP  0.0464
110. RRIRCRPPRLPRPRPRPDDPPRP  0.0647
111. RRIRCRPPRLPRPRPRPFWGPRP  0.0697
112. RRIRCRPPRLPRPRPRPDGDPRP  0.0934
113. RRIRCRPPRLPRPRPRPIFEPRP  0.0936
114. RRIRCRPPRLPRPRPRPEPVPRP  0.0937
115. RRIRCRPPRLPRPRPRPDMWPRP  0.104
116. RRIRCRPPRLPRPRPRPFPSPRP  0.118
117. RRIRCRPPRLPRPRPRPEGTPRP  0.137
118. RRIRCRPPRLPRPRPRPEIQPRP  0.141
119. RRIRCRPPRLPRPRPRPEETPRP  0.143
120. RRIRCRPPRLPRPRPRPHLRPRP  0.144
121. RRIRCRPPRLPRPRPRPGLFPRP  0.154
122. RRIRCRPPRLPRPRPRPEARPRP  0.193
123. RRIRCRPPRLPRPRPRPDPVPRP  0.205
124. RRIRCRPPRLPRPRPRPETRPRP  0.209
125. RRIRCRPPRLPRPRPRPETNPRP  0.222
126. RRIRCRPPRLPRPRPRPDCWPRP  0.23
127. RRIRCRPPRLPRPRPRPELQPRP  0.251
128. RRIRCRPPRLPRPRPRPEQIPRP  0.259
129. RRIRCRPPRLPRPRPRPGQNPRP  0.261
130. RRIRCRPPRLPRPRPRPGEQPRP  0.262
131. RRIRCRPPRLPRPRPRPICGPRP  0.289
132. RRIRCRPPRLPRPRPRPERVPRP  0.361
133. RRIRCRPPRLPRPRPRPGAGPRP  0.364
134. RRIRCRPPRLPRPRPRPGDWPRP  0.377
135. RRIRCRPPRLPRPRPRPETTPRP  0.394
136. RRIRCRPPRLPRPRPRPGAWPRP  0.462
137. RRIRCRPPRLPRPRPRPEGGPRP  0.477
138. RRIRCRPPRLPRPRPRPEWLPRP  0.479
139. RRIRCRPPRLPRPRPRPGSGPRP  0.496
140. RRIRCRPPRLPRPRPRPGATPRP  0.512
141. RRIRCRPPRLPRPRPRPGWVPRP  0.513
142. RRIRCRPPRLPRPRPRPEVGPRP  0.555
143. RRIRCRPPRLPRPRPRPGLWPRP  0.569
144. RRIRCRPPRLPRPRPRPGCAPRP  0.593
145. RRIRCRPPRLPRPRPRPEQWPRP  0.594
146. RRIRCRPPRLPRPRPRPEENPRP  0.602
147. RRIRCRPPRLPRPRPRPGWAPRP  0.606
148. RRIRCRPPRLPRPRPRPEMPPRP  0.65
149. RRIRCRPPRLPRPRPRPEGQPRP  0.788
150. RRIRCRPPRLPRPRPRPETPPRP  1.91
